What follows are binders tested against T1, human LAP-TGFB1 Fc fusion (human) (assay: BLI off-rate screen).
T1 construct: also called human LAP-TGFβ1-Fc; human LAP-TGFβ-Fc isoform 1
Method: The Fab mutants including a positive control, 20E6 Fab, and a negative control Fab (Molecular Innovations, catalog HU-FAB-4510) were diluted to 200 nM in assay buffer and loaded to FAB2G sensors for 180 seconds followed by a one-hour incubation at room temperature in assay buffer to equilibrate the tips. The Fab loaded sensors were assessed for binding with 100 nM human LAP-TGFβ for 180 seconds followed by a 180 second dissociation phase in assay buffer on a ForteBio HTX (software version 9.0.0.66). Non-specific binding to the negative control Fab was subtracted and the binding sensorgrams were aligned to the start of the association phase on the X and Y axis. The Fab binding was fit with the 1:1 binding model, dissociation phase only, with local fitting using ForteBio Data Analysis 9.0 software.
Twenty-three variants containing a single tyrosine substitution in the light chain CDRs (at one of amino acid positions 24-31, 33, 34, 51-56, and 89-95 according to Kabat numbering scheme) and 21 similar heavy chain CDR variants (at amino acids positions 28-31, 33-35, 50-58 including 52a, 95, 96, 98, and 99 according to Kabat numbering scheme) were generated according to FIG. 1 and listed in Table 6 and their interactions with human LAP-TGFb1 were analyzed by ForteBio interferometry. […] In those sequences the VL is correct, even though these sequences are from the heavy chain. Thus, the VL_X ##Y refers to the position of the tyrosine mutation within the antibody, regardless of whether the sequence is a heavy or light chain.

T1 sequence (chain, as listed by the source limits assumed): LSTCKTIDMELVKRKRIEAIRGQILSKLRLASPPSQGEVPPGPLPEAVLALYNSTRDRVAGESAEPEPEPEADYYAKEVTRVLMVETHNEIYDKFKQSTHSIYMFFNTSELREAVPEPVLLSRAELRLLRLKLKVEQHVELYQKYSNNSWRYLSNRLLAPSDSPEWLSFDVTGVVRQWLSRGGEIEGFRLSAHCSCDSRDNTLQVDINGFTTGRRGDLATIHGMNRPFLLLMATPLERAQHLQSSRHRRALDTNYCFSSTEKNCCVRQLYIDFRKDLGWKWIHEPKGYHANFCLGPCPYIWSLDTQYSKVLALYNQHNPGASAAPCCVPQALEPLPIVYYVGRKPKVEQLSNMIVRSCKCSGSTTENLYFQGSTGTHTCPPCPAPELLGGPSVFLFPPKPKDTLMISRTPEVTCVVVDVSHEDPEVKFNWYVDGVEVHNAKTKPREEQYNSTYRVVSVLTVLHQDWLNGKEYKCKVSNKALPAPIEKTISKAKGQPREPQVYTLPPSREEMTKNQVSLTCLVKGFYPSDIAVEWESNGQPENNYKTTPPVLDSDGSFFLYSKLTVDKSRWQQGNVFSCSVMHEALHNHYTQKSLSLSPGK

Binding response [nm] | binding result | Fold change [fold] | koff [s⁻¹] | Binder
0.555 | – | 1 | 0.043 | VH I57Y (83BIT) (Fab, V domains shown) VH: EVQLVQSGAEVKKPGASVKVSCKASGYTFTSYWMHWVRQAPGQGLEWMGRIDPQSGGYKYAQKFQGRATLTVDTSTSTAYMELSRLRSDDTAVYYCARWDYGGYFDVWGQGTLVTVSS VL: DIQMTQSPSSLSASVGDRVTITCRASQDITNYLNWYQQKPGKAVKLLIYYTSRLHSGVPSRFSGSGSGTDYTLTISSLQPEDFATYFCQQGDTLPWTFGQGTKLEIKR
0.326 | – | 1.2 | 0.0343 | VH T28Y (67BIT) (Fab, V domains shown) VH: EVQLVQSGAEVKKPGASVKVSCKASGYYFTSYWMHWVRQAPGQGLEWMGRIDPQSGGIKYAQKFQGRATLTVDTSTSTAYMELSRLRSDDTAVYYCARWDYGGYFDVWGQGTLVTVSS VL: DIQMTQSPSSLSASVGDRVTITCRASQDITNYLNWYQQKPGKAVKLLIYYTSRLHSGVPSRFSGSGSGTDYTLTISSLQPEDFATYFCQQGDTLPWTFGQGTKLEIKR
0.324 | – | 0.9 | 0.0445 | VH R50Y (75BIT) (Fab, V domains shown, also called VH RSOY (75BIT)) VH: EVQLVQSGAEVKKPGASVKVSCKASGYTFTSYWMHWVRQAPGQGLEWMGYIDPQSGGIKYAQKFQGRATLTVDTSTSTAYMELSRLRSDDTAVYYCARWDYGGYFDVWGQGTLVTVSS VL: DIQMTQSPSSLSASVGDRVTITCRASQDITNYLNWYQQKPGKAVKLLIYYTSRLHSGVPSRFSGSGSGTDYTLTISSLQPEDFATYFCQQGDTLPWTFGQGTKLEIKR
0.339 | – | 1.3 | 0.0327 | VH K58Y (84BIT) (Fab, V domains shown) VH: EVQLVQSGAEVKKPGASVKVSCKASGYTFTSYWMHWVRQAPGQGLEWMGRIDPQSGGIYYAQKFQGRATLTVDTSTSTAYMELSRLRSDDTAVYYCARWDYGGYFDVWGQGTLVTVSS VL: DIQMTQSPSSLSASVGDRVTITCRASQDITNYLNWYQQKPGKAVKLLIYYTSRLHSGVPSRFSGSGSGTDYTLTISSLQPEDFATYFCQQGDTLPWTFGQGTKLEIKR
0.696 | – | 1.2 | 0.0361 | VH S31Y (70BIT) (Fab, V domains shown) VH: EVQLVQSGAEVKKPGASVKVSCKASGYTFTYYWMHWVRQAPGQGLEWMGRIDPQSGGIKYAQKFQGRATLTVDTSTSTAYMELSRLRSDDTAVYYCARWDYGGYFDVWGQGTLVTVSS VL: DIQMTQSPSSLSASVGDRVTITCRASQDITNYLNWYQQKPGKAVKLLIYYTSRLHSGVPSRFSGSGSGTDYTLTISSLQPEDFATYFCQQGDTLPWTFGQGTKLEIKR
0.623 | – | 1 | 0.0414 | VH M34Y (72BIT) (Fab, V domains shown) VH: EVQLVQSGAEVKKPGASVKVSCKASGYTFTSYWYHWVRQAPGQGLEWMGRIDPQSGGIKYAQKFQGRATLTVDTSTSTAYMELSRLRSDDTAVYYCARWDYGGYFDVWGQGTLVTVSS VL: DIQMTQSPSSLSASVGDRVTITCRASQDITNYLNWYQQKPGKAVKLLIYYTSRLHSGVPSRFSGSGSGTDYTLTISSLQPEDFATYFCQQGDTLPWTFGQGTKLEIKR
0.625 | – | 1 | 0.0416 | VH Q53Y (79BIT) (Fab, V domains shown) VH: EVQLVQSGAEVKKPGASVKVSCKASGYTFTSYWMHWVRQAPGQGLEWMGRIDPYSGGIKYAQKFQGRATLTVDTSTSTAYMELSRLRSDDTAVYYCARWDYGGYFDVWGQGTLVTVSS VL: DIQMTQSPSSLSASVGDRVTITCRASQDITNYLNWYQQKPGKAVKLLIYYTSRLHSGVPSRFSGSGSGTDYTLTISSLQPEDFATYFCQQGDTLPWTFGQGTKLEIKR
0.588 | – | 1 | 0.0406 | VH S54Y (80BIT) (Fab, V domains shown) VH: EVQLVQSGAEVKKPGASVKVSCKASGYTFTSYWMHWVRQAPGQGLEWMGRIDPQYGGIKYAQKFQGRATLTVDTSTSTAYMELSRLRSDDTAVYYCARWDYGGYFDVWGQGTLVTVSS VL: DIQMTQSPSSLSASVGDRVTITCRASQDITNYLNWYQQKPGKAVKLLIYYTSRLHSGVPSRFSGSGSGTDYTLTISSLQPEDFATYFCQQGDTLPWTFGQGTKLEIKR
0.566 | – | 0.9 | 0.0454 | VH P52aY (78BIT) (Fab, V domains shown) VH: EVQLVQSGAEVKKPGASVKVSCKASGYTFTSYWMHWVRQAPGQGLEWMGRIDYQSGGIKYAQKFQGRATLTVDTSTSTAYMELSRLRSDDTAVYYCARWDYGGYFDVWGQGTLVTVSS VL: DIQMTQSPSSLSASVGDRVTITCRASQDITNYLNWYQQKPGKAVKLLIYYTSRLHSGVPSRFSGSGSGTDYTLTISSLQPEDFATYFCQQGDTLPWTFGQGTKLEIKR

Second part, the binder before the results:

Binder | Binding response [nm] | binding result | Fold change [fold] | koff [s⁻¹]
VH D52Y (77BIT) (Fab, V domains shown) VH: EVQLVQSGAEVKKPGASVKVSCKASGYTFTSYWMHWVRQAPGQGLEWMGRIYPQSGGIKYAQKFQGRATLTVDTSTSTAYMELSRLRSDDTAVYYCARWDYGGYFDVWGQGTLVTVSS VL: DIQMTQSPSSLSASVGDRVTITCRASQDITNYLNWYQQKPGKAVKLLIYYTSRLHSGVPSRFSGSGSGTDYTLTISSLQPEDFATYFCQQGDTLPWTFGQGTKLEIKR | 0.042 | no binding (tested: 100 nM antigen) | – | –
VH D96Y (64BIT) (Fab, V domains shown) VH: EVQLVQSGAEVKKPGASVKVSCKASGYTFTSYWMHWVRQAPGQGLEWMGRIDPQSGGIKYAQKFQGRATLTVDTSTSTAYMELSRLRSDDTAVYYCARWYYGGYFDVWGQGTLVTVSS VL: DIQMTQSPSSLSASVGDRVTITCRASQDITNYLNWYQQKPGKAVKLLIYYTSRLHSGVPSRFSGSGSGTDYTLTISSLQPEDFATYFCQQGDTLPWTFGQGTKLEIKR | 0.102 | – | 0.6 | 0.0746
VH G55Y (81BIT) (Fab, V domains shown) VH: EVQLVQSGAEVKKPGASVKVSCKASGYTFTSYWMHWVRQAPGQGLEWMGRIDPQSYGIKYAQKFQGRATLTVDTSTSTAYMELSRLRSDDTAVYYCARWDYGGYFDVWGQGTLVTVSS VL: DIQMTQSPSSLSASVGDRVTITCRASQDITNYLNWYQQKPGKAVKLLIYYTSRLHSGVPSRFSGSGSGTDYTLTISSLQPEDFATYFCQQGDTLPWTFGQGTKLEIKR | 0.542 | – | 1.2 | 0.036
VH G56Y (82BIT) (Fab, V domains shown) VH: EVQLVQSGAEVKKPGASVKVSCKASGYTFTSYWMHWVRQAPGQGLEWMGRIDPQSGYIKYAQKFQGRATLTVDTSTSTAYMELSRLRSDDTAVYYCARWDYGGYFDVWGQGTLVTVSS VL: DIQMTQSPSSLSASVGDRVTITCRASQDITNYLNWYQQKPGKAVKLLIYYTSRLHSGVPSRFSGSGSGTDYTLTISSLQPEDFATYFCQQGDTLPWTFGQGTKLEIKR | 0.569 | – | 1 | 0.0436
VH G98Y (65BIT) (Fab, V domains shown) VH: EVQLVQSGAEVKKPGASVKVSCKASGYTFTSYWMHWVRQAPGQGLEWMGRIDPQSGGIKYAQKFQGRATLTVDTSTSTAYMELSRLRSDDTAVYYCARWDYYGYFDVWGQGTLVTVSS VL: DIQMTQSPSSLSASVGDRVTITCRASQDITNYLNWYQQKPGKAVKLLIYYTSRLHSGVPSRFSGSGSGTDYTLTISSLQPEDFATYFCQQGDTLPWTFGQGTKLEIKR | 0.037 | no binding (tested: 100 nM antigen) | – | –
VH G99Y (66BIT) (Fab, V domains shown) VH: EVQLVQSGAEVKKPGASVKVSCKASGYTFTSYWMHWVRQAPGQGLEWMGRIDPQSGGIKYAQKFQGRATLTVDTSTSTAYMELSRLRSDDTAVYYCARWDYGYYFDVWGQGTLVTVSS VL: DIQMTQSPSSLSASVGDRVTITCRASQDITNYLNWYQQKPGKAVKLLIYYTSRLHSGVPSRFSGSGSGTDYTLTISSLQPEDFATYFCQQGDTLPWTFGQGTKLEIKR | 0.055 | – | 0.9 | 0.0476
VH H35Y (73BIT) (Fab, V domains shown) VH: EVQLVQSGAEVKKPGASVKVSCKASGYTFTSYWMYWVRQAPGQGLEWMGRIDPQSGGIKYAQKFQGRATLTVDTSTSTAYMELSRLRSDDTAVYYCARWDYGGYFDVWGQGTLVTVSS VL: DIQMTQSPSSLSASVGDRVTITCRASQDITNYLNWYQQKPGKAVKLLIYYTSRLHSGVPSRFSGSGSGTDYTLTISSLQPEDFATYFCQQGDTLPWTFGQGTKLEIKR | 0.334 | – | 0.9 | 0.0471
VH F29Y (68BIT) (Fab, V domains shown) VH: EVQLVQSGAEVKKPGASVKVSCKASGYTYTSYWMHWVRQAPGQGLEWMGRIDPQSGGIKYAQKFQGRATLTVDTSTSTAYMELSRLRSDDTAVYYCARWDYGGYFDVWGQGTLVTVSS VL: DIQMTQSPSSLSASVGDRVTITCRASQDITNYLNWYQQKPGKAVKLLIYYTSRLHSGVPSRFSGSGSGTDYTLTISSLQPEDFATYFCQQGDTLPWTFGQGTKLEIKR | 0.597 | – | 1.3 | 0.0336
VH I51Y (76BIT) (Fab, V domains shown) VH: EVQLVQSGAEVKKPGASVKVSCKASGYTFTSYWMHWVRQAPGQGLEWMGRYDPQSGGIKYAQKFQGRATLTVDTSTSTAYMELSRLRSDDTAVYYCARWDYGGYFDVWGQGTLVTVSS VL: DIQMTQSPSSLSASVGDRVTITCRASQDITNYLNWYQQKPGKAVKLLIYYTSRLHSGVPSRFSGSGSGTDYTLTISSLQPEDFATYFCQQGDTLPWTFGQGTKLEIKR | 0.6 | – | 1.1 | 0.0379

Source: patent publication US20230272056A1 (Merck Sharp & Dohme, published 2023)
